The assay concerns the target HSV-1 major capsid protein VP5 (gene product of UL19) (herpes simplex virus type 1 (HSV-1)). Put plainly: co-immunoprecipitation with VP5 antisera of in vitro translated radiolabeled protein mixed with BAC-VP5 Sf9 extract, SDS-PAGE.

This passage reports fold amount co-immunoprecipitated with VP5 against the negative control proteins (HPV-6b E1, HPV-16 E1, HPV-16 E2) results from EP0860700A2.

HSV-1 UL15 gene product (75 kD protein) registered a fold amount co-immunoprecipitated with VP5 against the negative control proteins (HPV-6b E1, HPV-16 E1, HPV-16 E2) of 10 fold.
